Test results from article PMC9835603, “A conserved SH3-like fold in diverse putative proteins tetramerizes into an oxidoreductase providing an antimicrobial resistance phenotype” (Philosophical Transactions of the Royal Society B: …, 2023).
“And” between values parts separate entries of the source, which are not always exact repeats. Equal values may be shown once. Read-outs that look alike come from different tables or passages of the source.

What was measured:
[1] = target: DfrB-H5 (distant DfrB homologue from Methylobacterium pseudosasicola) (Methylobacterium pseudosasicola); assay: negative-stain electron microscopy; purified protein from a single gel filtration peak, 40 ng/ul, uranyl formate stain, two-dimensional classification
[2] = target: DfrB-H5 (distant DfrB homologue from Methylobacterium pseudosasicola) (Methylobacterium pseudosasicola); assay: as above; remark: listed apart in the source
[3] = test system: NC(=O)C1=CN([C@@H]2O[C@H](COP(=O)(O)OP(=O)(O)OC[C@H]3O[C@@H](n4cnc5c(N)ncnc54)[C@H](OP(=O)(O)O)[C@@H]3O)[C@@H](O)[C@H]2O)C=CC1; assay: steady-state kinetics (KM) with purified enzyme; assay type: biochemical, Escherichia coli; conditions: varied: cofactor
[4] = target: T1, DfrB-H5 (Methylobacterium pseudosasicola, UniProt A0A1I4V6W3); assay: dihydrofolate reductase activity assay at […] nm with purified enzyme; Ki from IC50 by Cheng-Prusoff; assay type: biochemical
T1 construct: gene SAMN05192568_10896; full-length 365-residue protein, N-terminal His6 tag

[5] = target: His6-DfrB1 (type B dihydrofolate reductase DfrB1); assay: negative-stain electron microscopy; purified protein from a single gel filtration peak, 40 ng/ul, uranyl formate stain, two-dimensional classification
[6] = target: His6-DfrB1 (type B dihydrofolate reductase DfrB1); assay: SEC-MALS; SEC-MALLS; Superdex 200 10/300 GL for DfrB-H5, Superdex 75 10/300 GL for DfrB1, 0.4 ml/min

For “DfrB-H5 (distant DfrB homologue from Methylobacterium pseudosasicola) (enzyme)”, the stoichiometry N [1] was 2 and 3 and the stoichiometry N [2] was 4.

Compound DfrB1 (Escherichia coli; Y69L) has a Km [3] of 170 ± 20 µM.

Work on `O=C(O)c1ccc2[nH]c(-c3ccc(OCCCCCOc4ccc(-c5nc6cc(C(=O)O)ccc6[nH]5)cc4)cc3)nc2c1` [compound 1, 2,2′-[1,5-pentanediylbis(4-oxyphenylene)]-bis-1H-benzimidazole-5-carboxylic acid] yielded a Ki ([4]; read-out: 1 / Ki) of 12 ± 6 µM.

For “His6-DfrB1 (type B dihydrofolate reductase DfrB1) (enzyme)”, the stoichiometry N [5] was 4 and the stoichiometry N [6] was 4.

`CC1(C)Nc2nc(N)[nH]c(=O)c2N=C1C(=O)NCCN1CCC(SC[C@H]2O[C@@H](n3cnc4c(N)ncnc43)[C@H](O)[C@@H]2O)CC1` [compound 2, 2-amino-N-(2-(4-((((2S,3S,4R,5R)-5-(6-amino-9H-purin-9-yl)-3,4-dihydroxytetrahydrofuran-2-yl)methyl)thio)piperidin-1-yl)ethyl)-7,7-dimethyl-4-oxo-3,4,7,8-tetrahydropteridine-6-carboxamide] showed a Ki ([4]; read-out: 2 / Ki) of 30 ± 10 µM.
